Data on 2 molecules can be found in CN106916225A (UNIV JINAN, dated 2017).

In experiment [1] the target is T1, 人N端脑钠肽前体 (N-terminal pro-brain natriuretic peptide, NT-proBNP) (human, UniProt P16860 27-102).
T1 construct: domain: N端脑钠肽前体 (NT-proBNP), 76个氨基酸残基; Bought recombinant protein; also called hNT-proBNP; 人N末端B型脑钠肽前体
T1 sequence (looked up): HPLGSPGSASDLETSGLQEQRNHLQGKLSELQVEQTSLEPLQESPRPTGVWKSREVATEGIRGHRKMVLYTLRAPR
In words: non-competitive enzyme immunoassay (ELISA), NT-proBNP coated at 400, 100, 25 ng/mL, Ka=(n-1)/2(n[Ab']t-[Ab]t). (An ELISA detects its analyte on a solid surface through an enzyme-linked reagent.)

Experiment [2] deals with T1, 人N端脑钠肽前体 (N-terminal pro-brain …). Description: indirect ELISA, NT-proBNP coated at 400 ng/ml, serially diluted purified ascites antibody.

B1: 单克隆抗体Ab1 (抗人N端脑钠肽前体单克隆抗体, 杂交瘤细胞株3A2分泌) (antibody)
chain 1: VKLQESGPELVKPGASQKISCKTSGYTFTVYTLHWVKQSHGKSLEWIGAINPKTGSIRNNQKFRDKAILTIDRSSNTAYMDLRSLTSDDSAVYFCARNGGHDVYFFDYWGQGTTVTVSS
chain 2: DIVLTQSPASLAVSLGQRATISYRASKSVSTSGYSYMHWNQQKPGQPPRLLIYLVSNLESGVPARFSGSGSGTDFTLNIHPVEEEDAATYYCQHIR
In the case of B1, in experiment [1], the Ka stood at 1e+10 M⁻¹. Moreover, the “效价 (antibody dilution at OD450 about 1.0)” value in experiment [2] is > 1e+06 dilution fold (1:x).

B2: 单克隆抗体Ab3 (抗人N端脑钠肽前体单克隆抗体) (antibody, V domains shown)
VH: QVQLQQPGAELVKPGASVKMSCQASGFTFTNYIIHWVKQTPGQGLEWIGAIYPGNGDTSYNQKFRGKATLTADKSSNTAYMQLSSLTSEDSAVYYCAGEDNYGNSYWYFDVWGAGTTVTVSS
VL: DIVMTQTPLSLPVSLGDQASISCRSSQSIVHSTGNTYLEWYLQKPGQSPKLLIYKVSNRLSGVPDRFSGSGSGTDFTLKISRVEAEDLGVYYCFQGSQVSLTFGAGTKLELKR
Take B2: the “效价 (antibody dilution at OD450 about 1.0)” value in experiment [2] is > 1e+06 dilution fold (1:x).
